In article PMC12420816 (Nature Communications, 2025):

Biological target: SARS-CoV-2 nsp16 with uncleaved His6-tag (SARS-CoV-2) (UniProt P0DTD1)
Test: native MS

## MERS-CoV nsp7-11 polyprotein, tag-free with authentic termini (domain or fragment)
  percent of signal as complex: < 5%
